According to publication PMC11026473:

Target: myc-Xbra (UniProt P24781)
Assay: co-immunoprecipitation (IP: Flag, WB: Myc), band intensity quantified
Details: Xenopus embryos injected with flag-smad1 constructs and myc-xbra; parent: est. 1.0; read off a plot

UniProt P24781, sequence (P24781 whole entry): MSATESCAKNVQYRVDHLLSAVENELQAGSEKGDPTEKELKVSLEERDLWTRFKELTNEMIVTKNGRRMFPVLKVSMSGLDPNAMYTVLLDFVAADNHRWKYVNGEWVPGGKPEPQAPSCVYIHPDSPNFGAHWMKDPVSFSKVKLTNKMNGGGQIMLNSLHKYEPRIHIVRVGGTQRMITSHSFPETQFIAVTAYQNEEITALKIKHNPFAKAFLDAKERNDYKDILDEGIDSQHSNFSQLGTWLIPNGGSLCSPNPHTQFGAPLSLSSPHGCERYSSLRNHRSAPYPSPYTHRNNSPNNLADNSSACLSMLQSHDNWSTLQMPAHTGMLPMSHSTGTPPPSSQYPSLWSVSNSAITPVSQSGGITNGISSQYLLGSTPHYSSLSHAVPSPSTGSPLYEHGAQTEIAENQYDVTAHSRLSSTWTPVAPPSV

Substance | ratio to parent
flag-Smad1 (WT) (from UniProt Q15797) S187A; S196A; S206A; S214A; C-terminal SSXS to DDXD (4SA3SD) | 0.65
flag-Smad1 (WT) (from UniProt Q15797) S187D; S196D; S206D; S214D; C-terminal SSXS to DDXD (4SD3SD) | 4.1
